Source: US20240409627A1

Legend:
recombinant inhibin A = recombinant inhibin A (UniProt P05111); test: cell-based or functional assay
[1] = biological target: HA-tagged endoglin (endoglin-L) (UniProt P17813); test: patch/FRAP on live COS7 cells; HA-endoglin immobilized by IgG cross-linking, Fab'-labeled myc-ALK1 measured; no inhibin
[2] = biological target: HA-tagged endoglin (endoglin-L) (UniProt P17813); test: patch/FRAP on live COS7 cells; HA-endoglin immobilized by IgG cross-linking, Fab'-labeled myc-ALK1 measured; in the presence of 4 nM inhibin A
[3] = biological target: T1, endoglin on HMEC-1 human microvascular endothelial cells (human) (UniProt P17813); test: cell-based or functional assay
T1 sequence (looked up): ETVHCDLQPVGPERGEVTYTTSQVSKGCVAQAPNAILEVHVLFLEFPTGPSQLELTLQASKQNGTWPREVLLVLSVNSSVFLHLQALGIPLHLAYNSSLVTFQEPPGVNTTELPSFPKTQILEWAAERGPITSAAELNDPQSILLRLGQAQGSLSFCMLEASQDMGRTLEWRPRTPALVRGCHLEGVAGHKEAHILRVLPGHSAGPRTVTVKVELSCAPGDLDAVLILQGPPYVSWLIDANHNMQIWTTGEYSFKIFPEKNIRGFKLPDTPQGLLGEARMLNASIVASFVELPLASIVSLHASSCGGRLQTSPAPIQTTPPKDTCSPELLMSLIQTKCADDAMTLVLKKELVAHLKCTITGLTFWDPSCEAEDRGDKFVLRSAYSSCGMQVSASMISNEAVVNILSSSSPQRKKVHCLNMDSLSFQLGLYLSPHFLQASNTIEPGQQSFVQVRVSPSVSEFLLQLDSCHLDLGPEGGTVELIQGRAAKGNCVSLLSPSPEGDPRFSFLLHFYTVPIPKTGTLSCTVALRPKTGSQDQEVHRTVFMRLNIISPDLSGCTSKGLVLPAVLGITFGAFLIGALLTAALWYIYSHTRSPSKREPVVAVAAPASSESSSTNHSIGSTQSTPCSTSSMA

Chain of UniProt P05111 (P05111 233-366 limits assumed, chain 1 of 2): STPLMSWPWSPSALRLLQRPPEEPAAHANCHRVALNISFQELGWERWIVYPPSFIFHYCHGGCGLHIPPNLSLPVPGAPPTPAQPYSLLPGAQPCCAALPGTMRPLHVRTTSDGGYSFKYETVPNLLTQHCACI
Chain of UniProt P05111 (P08476 311-426 limits assumed, chain 2 of 2, further chain): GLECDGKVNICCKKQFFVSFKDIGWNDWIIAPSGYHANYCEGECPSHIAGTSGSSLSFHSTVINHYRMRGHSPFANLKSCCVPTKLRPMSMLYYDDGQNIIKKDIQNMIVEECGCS

## ALK1-Fc, a human chimeric ALK1 protein (from UniProt P37023 22-118) (Fc fusion)
Recombinant inhibin A
  fold decrease in inhibin A induced permeability of HMEC-1 monolayer at 4 h (FITC-dextran), 10 ng/mL ALK1-Fc: 1.5 times

## myc-tagged ALK1 (from UniProt P37023 22-503) (receptor)
[1]
  reduction in Rf (mobile fraction): 45%
[2]
  reduction in Rf (mobile fraction): 70%

B1: Tracon 105 (TRC105), a humanized endoglin monoclonal antibody (antibody, INN chains, looked up, V domains shown)
VH: EVKLEESGGGLVQPGGSMKLSCAASGFTFSDAWMDWVRQSPEKGLEWVAEIRSKASNHATYYAESVKGRFTISRDDSKSSVYLQMNSLRAEDTGIYYCTRWRRFFDSWGQGTTLTVSS
VL: QIVLSQSPAILSASPGEKVTMTCRASSSVSYMHWYQQKPGSSPKPWIYATSNLASGVPVRFSGSGSGTSYSLTISRVEAEDAATYYCQQWSSNPLTFGAGTKLELK
[3]
  fold decrease in inhibin A induced permeability of HMEC-1 monolayer at 4 h (FITC-dextran), 100 µg/mL TRC105: 2.2 times
